# Experimental data published in paper PMC5746218.
# Biological target: PitA (Haloferax volcanii) (Haloferax volcanii (endogenous in strain H26))
# Experiment: SEC; Sephacryl S-300 gel filtration of purified PitA against standard proteins (thyroglobulin, ferritin, KatG, BSA, cytochrome c554, cytochrome c)
substance,measurement,value
PitA (Haloferax volcanii) (enzyme),stoichiometry N (molecules of the subunit),> 10
